One may read the Kd as the concentration at which binding is half-saturated.

Where “and” joins values, the source holds several entries; their conditions need not be identical. Identical values can stand only once. Like-named read-outs stand apart in the source and are kept apart here. No end group written: not given here.

The target in assay [1] is NSD3 short peptide (Homo sapiens) (UniProt Q9BZ95). The note with it: cited from earlier work.
Assay [2] has as its target CHD4 peptide (Homo sapiens) (UniProt Q14839). To be noted: cited from earlier work.
Assay [3] has as its target BRG1 peptide (Homo sapiens) (UniProt P51532). To be noted: cited from earlier work.
Assay [4] has as its target JMJD6 peptide (Homo sapiens) (UniProt Q6NYC1). The note with it: cited from earlier work.
The target in assay [5] is LANA peptide (Human herpesvirus 8) (UniProt Q9QR71). To be noted: cited from earlier work.
Assay [6] concerns the target T1, BRD3 ET (Homo sapiens, UniProt Q15059). To be noted: cited from earlier work.
Assay [7] addresses T1, BRD3 ET. To be noted: cited from earlier work. The source holds these as a separate data set.
In assay [8] the target is BRD4 ET (Homo sapiens) (UniProt O60885). The note with it: cited from earlier work.
For a further assay, the target named is BRD3-ET. To be noted: cited from earlier work.
The next assay has as its system BRD4-ET. To be noted: cited from earlier work.
The target of assay [9] is BRD4 ET (Homo sapiens) (UniProt O60885). To be noted: cited from earlier work. This is another data set of the same source.
The target of assay [10] is T1, BRD3 ET. Put plainly: Isothermal titration calorimetry, peptide binding to BRD3 ET. Also noted: species or system murine. The note with it: ITC, 20 mM Tris, 150 mM NaCl, 1 mM TCEP. A general note: Isothermal titration calorimetry measures the heat released or taken up as one component is titrated into another.

T1 sequence (Q15059 554-640): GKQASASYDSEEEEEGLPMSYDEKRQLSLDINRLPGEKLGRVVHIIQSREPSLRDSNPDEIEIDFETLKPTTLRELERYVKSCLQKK
Sequence of BRD3 ET (from UniProt Q15059) (Q15059 562-644): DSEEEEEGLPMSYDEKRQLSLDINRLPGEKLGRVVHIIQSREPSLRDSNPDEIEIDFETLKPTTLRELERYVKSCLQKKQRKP
Sequence of LANA peptide (Human herpesvirus 8) (Q9QR71 1-23): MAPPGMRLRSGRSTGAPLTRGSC
Sequence of BRG1 peptide (Homo sapiens) (P51532 whole entry): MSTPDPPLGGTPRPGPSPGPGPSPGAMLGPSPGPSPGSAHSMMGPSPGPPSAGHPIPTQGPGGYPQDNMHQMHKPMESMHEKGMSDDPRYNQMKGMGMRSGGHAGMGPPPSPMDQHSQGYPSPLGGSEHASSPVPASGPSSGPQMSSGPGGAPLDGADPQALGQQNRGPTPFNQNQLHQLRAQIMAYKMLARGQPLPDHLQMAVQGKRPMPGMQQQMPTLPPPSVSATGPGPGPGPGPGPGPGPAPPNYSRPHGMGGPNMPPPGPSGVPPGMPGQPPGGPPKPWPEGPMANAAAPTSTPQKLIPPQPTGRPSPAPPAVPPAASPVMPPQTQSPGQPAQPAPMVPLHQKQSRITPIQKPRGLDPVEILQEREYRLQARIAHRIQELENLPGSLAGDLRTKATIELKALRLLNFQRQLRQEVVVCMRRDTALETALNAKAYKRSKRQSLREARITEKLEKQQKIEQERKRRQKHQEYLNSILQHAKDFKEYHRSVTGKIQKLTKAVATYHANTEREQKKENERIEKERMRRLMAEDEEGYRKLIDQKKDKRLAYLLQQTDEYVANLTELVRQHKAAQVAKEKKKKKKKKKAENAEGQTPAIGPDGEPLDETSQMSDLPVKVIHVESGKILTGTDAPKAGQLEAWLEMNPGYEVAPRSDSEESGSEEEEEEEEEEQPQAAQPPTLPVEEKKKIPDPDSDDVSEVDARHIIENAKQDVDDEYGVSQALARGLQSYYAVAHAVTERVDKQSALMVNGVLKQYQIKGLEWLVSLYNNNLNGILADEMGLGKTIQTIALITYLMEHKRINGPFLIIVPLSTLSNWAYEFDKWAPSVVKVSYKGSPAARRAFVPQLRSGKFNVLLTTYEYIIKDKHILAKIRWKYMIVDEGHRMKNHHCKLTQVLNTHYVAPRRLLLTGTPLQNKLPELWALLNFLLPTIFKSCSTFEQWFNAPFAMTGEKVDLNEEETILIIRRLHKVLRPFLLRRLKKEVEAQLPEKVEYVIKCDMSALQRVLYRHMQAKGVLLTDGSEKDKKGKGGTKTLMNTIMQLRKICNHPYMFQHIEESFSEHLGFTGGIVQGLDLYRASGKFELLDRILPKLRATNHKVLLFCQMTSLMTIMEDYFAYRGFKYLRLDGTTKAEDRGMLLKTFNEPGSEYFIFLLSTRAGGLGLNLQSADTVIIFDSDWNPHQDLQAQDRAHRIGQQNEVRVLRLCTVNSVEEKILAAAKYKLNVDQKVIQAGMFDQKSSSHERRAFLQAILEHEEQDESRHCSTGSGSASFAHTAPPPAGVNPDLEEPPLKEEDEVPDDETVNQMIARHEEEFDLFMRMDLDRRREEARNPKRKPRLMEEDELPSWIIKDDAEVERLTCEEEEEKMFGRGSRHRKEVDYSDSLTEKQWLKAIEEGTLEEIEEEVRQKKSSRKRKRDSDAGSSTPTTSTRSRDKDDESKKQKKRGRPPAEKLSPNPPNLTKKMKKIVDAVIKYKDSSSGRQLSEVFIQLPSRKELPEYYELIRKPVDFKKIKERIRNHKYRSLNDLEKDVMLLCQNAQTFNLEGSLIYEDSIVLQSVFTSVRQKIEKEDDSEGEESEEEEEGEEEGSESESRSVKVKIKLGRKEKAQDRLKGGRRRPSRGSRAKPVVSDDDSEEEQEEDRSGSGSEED
Sequence of CHD4 peptide (Homo sapiens) (Q14839 whole entry): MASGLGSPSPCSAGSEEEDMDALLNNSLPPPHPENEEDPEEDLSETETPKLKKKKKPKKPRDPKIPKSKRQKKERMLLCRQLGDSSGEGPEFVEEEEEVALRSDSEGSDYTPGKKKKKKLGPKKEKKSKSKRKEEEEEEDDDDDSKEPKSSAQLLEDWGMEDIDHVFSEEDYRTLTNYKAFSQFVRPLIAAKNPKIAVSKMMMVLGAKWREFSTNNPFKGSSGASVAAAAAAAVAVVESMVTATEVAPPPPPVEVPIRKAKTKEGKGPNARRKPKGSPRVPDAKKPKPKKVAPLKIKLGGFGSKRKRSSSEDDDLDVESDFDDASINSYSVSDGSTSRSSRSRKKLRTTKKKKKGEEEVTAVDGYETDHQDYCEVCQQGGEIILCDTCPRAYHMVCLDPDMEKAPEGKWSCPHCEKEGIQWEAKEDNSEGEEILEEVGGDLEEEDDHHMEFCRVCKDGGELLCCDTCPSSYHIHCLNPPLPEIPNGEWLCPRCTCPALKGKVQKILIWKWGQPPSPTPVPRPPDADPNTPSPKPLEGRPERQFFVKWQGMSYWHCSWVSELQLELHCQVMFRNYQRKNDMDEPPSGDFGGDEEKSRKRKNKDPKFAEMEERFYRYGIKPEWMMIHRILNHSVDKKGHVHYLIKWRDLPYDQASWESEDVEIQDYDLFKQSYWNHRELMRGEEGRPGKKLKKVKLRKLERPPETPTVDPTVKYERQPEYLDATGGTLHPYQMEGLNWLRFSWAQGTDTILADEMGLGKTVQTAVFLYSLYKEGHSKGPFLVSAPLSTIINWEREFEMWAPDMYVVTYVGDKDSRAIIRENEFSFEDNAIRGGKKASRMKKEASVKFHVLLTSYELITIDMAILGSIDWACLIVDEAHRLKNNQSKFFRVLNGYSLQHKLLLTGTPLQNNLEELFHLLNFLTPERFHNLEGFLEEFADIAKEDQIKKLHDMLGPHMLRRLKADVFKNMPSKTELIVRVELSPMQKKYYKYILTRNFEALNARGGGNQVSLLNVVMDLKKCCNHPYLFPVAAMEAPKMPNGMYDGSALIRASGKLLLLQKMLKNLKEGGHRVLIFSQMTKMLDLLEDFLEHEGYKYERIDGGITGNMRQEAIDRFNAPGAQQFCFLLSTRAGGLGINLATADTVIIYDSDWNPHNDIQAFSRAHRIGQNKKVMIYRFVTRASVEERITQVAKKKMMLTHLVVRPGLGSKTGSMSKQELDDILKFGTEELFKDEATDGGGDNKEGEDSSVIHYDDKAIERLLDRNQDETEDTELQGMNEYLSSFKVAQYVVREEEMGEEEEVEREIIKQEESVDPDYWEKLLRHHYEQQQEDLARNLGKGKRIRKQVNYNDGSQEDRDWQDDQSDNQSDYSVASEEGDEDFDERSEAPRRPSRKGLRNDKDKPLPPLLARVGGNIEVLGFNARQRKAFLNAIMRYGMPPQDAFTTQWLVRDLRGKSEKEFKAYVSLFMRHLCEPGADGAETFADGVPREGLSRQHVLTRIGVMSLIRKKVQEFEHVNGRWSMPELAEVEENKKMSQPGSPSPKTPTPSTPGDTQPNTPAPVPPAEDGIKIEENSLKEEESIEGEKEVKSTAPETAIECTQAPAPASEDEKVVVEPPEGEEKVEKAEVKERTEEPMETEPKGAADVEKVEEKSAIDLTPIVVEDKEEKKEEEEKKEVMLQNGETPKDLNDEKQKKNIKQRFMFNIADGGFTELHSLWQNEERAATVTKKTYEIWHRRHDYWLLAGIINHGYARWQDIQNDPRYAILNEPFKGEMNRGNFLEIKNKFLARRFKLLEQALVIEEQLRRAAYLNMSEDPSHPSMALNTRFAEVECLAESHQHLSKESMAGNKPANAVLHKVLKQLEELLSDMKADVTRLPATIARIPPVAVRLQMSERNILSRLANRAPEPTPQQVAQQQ

Turning to BRD3 ET (from UniProt Q15059), the Kd in assay [1] was 950 µM; in assay [2], 95 µM; in assay [3], 7 µM.
As to BRD4 ET (from UniProt O60885), the Kd in assay [4] was 160 µM; in assay [5], 635 µM.
For BRG1 1591-1602 (from UniProt P51532), in the assay with BRD3 ET [6], the Kd was 7 µM.
As to CHD4 290-301 (from UniProt Q14839), the Kd with BRD3 ET [7] was 95 µM.
Regarding JMJD6 84-96 (from UniProt Q6NYC1), in the assay with BRD4 ET (Homo sapiens) [8], the Kd is 160 µM.
As for KVAPLKIKLGGF [CHD4], the Kd at BRD3-ET (BRD3-ET) was ~95 µM and < 100 µM.
KWTLERLKRKYRN [JMJD6]: in the assay on BRD4-ET (BRD4-ET binding of JMJD6 compared with NSD3 and LANA binding BRD3-ET), the “relative binding strength” value is “reported to bind BRD4-ET more strongly than NSD3 and LANA bind BRD3-ET”. In addition, on BRD4-ET (BRD4-ET:JMJD6, 20 °C), the Kd was ~160 µM. Besides, the “relative binding to BRD3-ET vs BRD4-ET” value in the assay on BRD3-ET (BRD3-ET compared with BRD4-ET) is recorded as “weak or no binding”.
As to LANA 1098-1116 (from UniProt Q9QR71), in the assay with BRD4 ET (Homo sapiens) [9], the Kd is 635 µM.
NLQSSIVKFKKPLPLTQPG [LANA]: the Kd at BRD4-ET (BRD4-ET:LANA) was ~635 µM.
As to SRLTWRVQRSQNPLKIRLTREAP [TP], the Kd stood at 0.013 ± 0.01 µM on BRD3 ET [10] (pH 7.5, 10 °C) and 0.09 ± 0.01 µM at BRD3 ET [10] (pH 7.5, 25 °C).

These data come from PMC10150588 (Journal of chemical information and modeling, 2023).
